Experimental data reported in patent publication US20260209386A1 (MYTHIC THERAPEUTICS, published 2026).
Substitutions are numbered along the chain they refer to.

T1: Human PTK7/CCK4 Protein, His Tag, Acro Biosystems PT7-H52H3 (human, UniProt Q13308 31-704)
T1 construct: bought protein; also called Human PTK7 Protein, His Tag, Acro Biosystems; not shown: His tag
T1 sequence: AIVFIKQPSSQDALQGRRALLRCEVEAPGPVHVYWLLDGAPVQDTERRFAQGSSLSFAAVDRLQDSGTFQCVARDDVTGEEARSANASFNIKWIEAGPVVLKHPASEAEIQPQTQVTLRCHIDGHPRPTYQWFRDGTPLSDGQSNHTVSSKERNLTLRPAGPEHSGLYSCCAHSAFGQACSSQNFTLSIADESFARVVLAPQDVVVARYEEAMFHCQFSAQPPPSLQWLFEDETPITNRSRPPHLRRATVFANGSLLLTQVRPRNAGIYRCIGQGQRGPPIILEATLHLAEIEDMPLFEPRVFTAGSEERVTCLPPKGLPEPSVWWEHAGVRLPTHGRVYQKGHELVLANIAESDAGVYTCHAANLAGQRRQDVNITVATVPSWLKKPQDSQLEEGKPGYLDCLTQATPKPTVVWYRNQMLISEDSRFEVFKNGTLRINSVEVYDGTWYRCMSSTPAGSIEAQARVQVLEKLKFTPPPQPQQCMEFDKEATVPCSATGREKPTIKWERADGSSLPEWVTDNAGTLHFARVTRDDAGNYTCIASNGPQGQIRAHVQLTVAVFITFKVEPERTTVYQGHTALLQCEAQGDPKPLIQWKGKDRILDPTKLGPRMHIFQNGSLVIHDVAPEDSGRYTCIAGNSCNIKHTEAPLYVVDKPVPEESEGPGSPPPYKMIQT

B1: MYT11180 (antibody, V domains shown)
VH: EVQLVESGGGLVQPGGSLRLSCTASHIDLSSYVMGWVRQAPGKGLEWVGYIYGGGGTYYATWARGRFTISRDTSKNTVYLQMNSLRAEDTAVYFCARAAADFYFNLWGQGTLVTVSS
VL: EIVMTQSPSTLSASVGDRVIITCQASQSISSYLAWYQQKPGKAPKLLIYDISDLASGVPSRFSGSGSGAEFTLTISSLQPDDFATYYCQSYYWISNSGAAFGQGTKLTVL
notes: IgG
B2: MYT11197 (antibody, V domains shown)
VH: B1 VH with H26G, T57H
VL: B1 VL
notes: IgG
B3: MYT11222 (antibody, V domains shown)
VH: B1 VH with H26G
VL: B1 VL with S26H
notes: IgG
B4: MYT11229 (antibody, V domains shown)
VH: B1 VH with H26G
VL: B1 VL with L33H
notes: IgG
B5: MYT11236 (antibody, V domains shown)
VH: B1 VH with H26G
VL: B1 VL with A55H
notes: IgG
B6: MYT11184 (antibody, V domains shown)
VH: B1 VH with H26G, S30H
VL: B1 VL
notes: IgG
B7: MYT11225 (antibody, V domains shown)
VH: B1 VH with H26G
VL: B1 VL with I29H
notes: IgG
B8: MYT11249 (antibody, V domains shown)
VH: B1 VH with H26G
VL: B1 VL with A100H
notes: IgG
B9: MYT11196 (antibody, V domains shown)
VH: B1 VH with H26G, G56H
VL: B1 VL
notes: IgG
B10: MYT11193 (antibody, V domains shown)
VH: B1 VH with H26G, G53H
VL: B1 VL
notes: IgG
B11: MYT11210 (antibody, V domains shown)
VH: B1 VH with H26G, A100H
VL: B1 VL
notes: IgG
B12: MYT11244 (antibody, V domains shown)
VH: B1 VH with H26G
VL: B1 VL with S95H
notes: IgG
B13: MYT11224 (antibody, V domains shown)
VH: B1 VH with H26G
VL: B1 VL with S28H
notes: IgG
B14: MYT11245 (antibody, V domains shown)
VH: B1 VH with H26G
VL: B1 VL with N96H
notes: IgG
B15: MYT11240 (antibody, V domains shown)
VH: B1 VH with H26G
VL: B1 VL with Y91H
notes: IgG
B16: MYT11194 (antibody, V domains shown)
VH: B1 VH with H26G, G54H
VL: B1 VL
notes: IgG
B17: MYT11246 (antibody, V domains shown)
VH: B1 VH with H26G
VL: B1 VL with S97H
notes: IgG
B18: MYT11213 (antibody, V domains shown)
VH: B1 VH with H26G, Y103H
VL: B1 VL
notes: IgG
B19: MYT11247 (antibody, V domains shown)
VH: B1 VH with H26G
VL: B1 VL with G98H
notes: IgG
B20: MYT11248 (antibody, V domains shown)
VH: B1 VH with H26G
VL: B1 VL with A99H
notes: IgG
B21: MYT11192 (antibody, V domains shown)
VH: B1 VH with H26G, Y52H
VL: B1 VL
notes: IgG
B22: MYT11238 (antibody, V domains shown)
VH: B1 VH with H26G
VL: B1 VL with Q89H
notes: IgG
B23: MYT11182 (antibody, V domains shown)
VH: B1 VH with H26G, D28H
VL: B1 VL
notes: IgG
B24: MYT11221 (antibody, V domains shown)
VH: B1 VH with H26G
VL: B1 VL with A25H
notes: IgG
B25: MYT11195 (antibody, V domains shown)
VH: B1 VH with H26G, G55H
VL: B1 VL
notes: IgG
B26: MYT11108 (antibody, V domains shown)
VH: EVQLVESGGGLVQPGGSLRLSCTASGFSLSTHAMSWVRQAPGKGLEWVGMIYINDNTYYASWAKGRFTISRDTSKNTVYLQMNSLRAEDTAVYFCARDIGISYYIGVSLWGQGTLVTVSS
VL: EIVMTQSPSTLSASVGDRVIITCQASQSIGTRLSWYQQKPGKAPKLLIYGASKLATGVPSRFSGSGSGAEFTLTISSLQPDDFATYYCLGEYSYTTTDGIAFGQGTKLTVL
notes: IgG
B27: MYT11150 (antibody, V domains shown)
VH: B26 VH with H32Y
VL: B26 VL with I29H
notes: IgG
B28: MYT11152 (antibody, V domains shown)
VH: B26 VH with H32Y
VL: B26 VL with T31H
notes: IgG
B29: MYT11134 (antibody, V domains shown)
VH: B26 VH with H32Y, S102H
VL: B26 VL
notes: IgG
B30: MYT11153 (antibody, V domains shown)
VH: B26 VH with H32Y
VL: B26 VL with R32H
notes: IgG
B31: MYT11136 (antibody, V domains shown)
VH: B26 VH with H32Y, Y104H
VL: B26 VL
notes: IgG
B32: MYT11120 (antibody, V domains shown)
VH: B26 VH with H32Y, Y58H
VL: B26 VL
notes: IgG
B33: MYT11146 (antibody, V domains shown)
VH: B26 VH with H32Y
VL: B26 VL with A25H
notes: IgG
B34: MYT11172 (antibody, V domains shown)
VH: B26 VH with H32Y
VL: B26 VL with D98H
notes: IgG
B35: MYT11137 (antibody, V domains shown)
VH: B26 VH with H32Y, I105H
VL: B26 VL
notes: IgG
B36: MYT11115 (antibody, V domains shown)
VH: B26 VH with H32Y, I53H
VL: B26 VL
notes: IgG
B37: MYT11163 (antibody, V domains shown)
VH: B26 VH with H32Y
VL: B26 VL with L89H
notes: IgG
B38: MYT11117 (antibody, V domains shown)
VH: B26 VH with H32Y, D55H
VL: B26 VL
notes: IgG
B39: MYT11151 (antibody, V domains shown)
VH: B26 VH with H32Y
VL: B26 VL with G30H
notes: IgG
B40: MYT11166 (antibody, V domains shown)
VH: B26 VH with H32Y
VL: B26 VL with Y92H
notes: IgG

Molecular target: T1, Human PTK7/CCK4 Protein, His Tag, Acro …
Test: BLI, antibody on anti-human Fc sensor, 50 nM PTK7

Binder	binding result
B1	binds
B2	binds
B3	binds
B4	binds
B5	binds
B6	binds
B7	binds
B8	binds
B9	binds
B10	binds
B11	binds
B12	binds
B13	binds
B14	binds
B15	binds
B16	binds
B17	binds
B18	binds
B19	binds
B20	binds

Binder	binding result
B21	binds
B22	binds
B23	binds
B24	binds
B25	binds
B26	binds
B27	binds
B28	binds
B29	binds
B30	binds
B31	binds
B32	binds
B33	binds
B34	binds
B35	binds
B36	binds
B37	binds
B38	binds
B39	binds
B40	binds
